In article PMC2752461, “Involvement of S-adenosylmethionine-dependent halide/thiol methyltransferase (HTMT) in methyl halide emissions from agricultural plants: isolation and characterization of an HTMT-coding gene from Raphanus sativus (daikon radish)” (BMC Plant Biology, 2009) one finds Km and Vmax data, which are given here for 1 protein.

Substrate in data set [1]: N#CS
The data set can be described thus: GC-FID of CH3SCN formation. It is filed as biochemical, Raphanus sativus. Conditions: 500 μM SAM constant, KSCN, 20 mM MES pH 7.0, 30 °C. The text has this: GC-FID of CH3SCN formation on recombinant RsHTMT

Substrate in data set [2]: S
The data set is described as follows: GC-MS headspace assay of methylated product. It is filed as biochemical, Raphanus sativus. The conditions noted are these: 500 μM SAM constant, supplied as NaSH, 20 mM MES pH 7.0, 30 °C.
Description: (§1) GC-MS headspace assay of methylated product on recombinant RsHTMT

Substrate in data set [3]: I
The data set can be described thus: GC-MS headspace assay of methylated product. It is filed as biochemical, Raphanus sativus. The conditions noted are these: 500 μM SAM constant, 20 mM MES pH 7.0, 30 °C.
Description: as §1

Substrate in the data set “purified protein”: C[S+](CC[C@H](N)C(=O)O)C[C@H]1O[C@@H](n2cnc3c(N)ncnc32)[C@H](O)[C@@H]1O
The data set can be described thus: purified protein. Conditions: 20 mM iodide constant, 20 mM MES pH 7.0, 30 °C.

B1: recombinant RsHTMT (Raphanus sativus) (protein)
chain: MAEGQQNSGNSNGENIIPPEDVAKFLPKTVEEGGWEKCWEDGVTPWDQGRATPLVVHLVESSSLPLGRALVPGCGGGHDVVAMASPERYVVGLDISESALEKAAETYASSPKAKYFTFVKEDFFTWRPSELFDLIFDYVVFCAIEPEMRAAWAKTMYELLKPDGELITLMYPITDHDGGPPYKVAVSTYEDVLVPVGFKAVSIEENPYSIATRKGKEKLGRWKKIN
notes: sense primer encodes MAEGQQ), His-tagged fusion in pET-21b, E. coli BL21(DE3), Ni-Sepharose, tag kept
For B1, the Michaelis-Menten constant (Km) in data set [1] was determined as 40 µM; in data set [2], 12240 µM; in data set [3] it was 4470 µM; in the data set “purified protein”, 190 µM. The Vmax came out at 0.185 µmol/min/mg in data set [1], 0.159 µmol/min/mg in data set [2] and 0.139 µmol/min/mg in data set [3].
